Patent publication US20240058447A1 (INSTIL BIO UK, published 2024)
Each block holds one molecule with its values, some of them ahead of it.

Tests used:
[1] = molecular target: membrane-bound FRα on target cells (UniProt P15328); test: cell-based or functional assay
[2] = molecular target: CD3 of the TCR/CD3 complex on T cells (human) (UniProt P07766); test: cell-based or functional assay
[3] = molecular target: T1, human histidine-tagged FRα (human, UniProt P15328 25-234); test: surface plasmon resonance (printed 'Surface plasma resonance'); orientation not stated; FIG. 54 names human histidine-tagged FRα
T1 construct: also called folate receptor α; FOLR1; not shown: histidine tag
T1 sequence (P15328 25-234 limits assumed): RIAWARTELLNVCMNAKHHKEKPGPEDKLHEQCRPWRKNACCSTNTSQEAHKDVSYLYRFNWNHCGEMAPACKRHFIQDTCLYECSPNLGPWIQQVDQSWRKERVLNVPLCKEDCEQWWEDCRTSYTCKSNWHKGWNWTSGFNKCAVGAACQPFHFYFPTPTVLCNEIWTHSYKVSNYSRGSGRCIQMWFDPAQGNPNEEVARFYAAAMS

membrane-bound FRα on target cells, sequence (P15328 25-234 limits assumed): as above
CD3 of the TCR/CD3 complex on T cells (human), sequence (P07766 23-207, one chain of several): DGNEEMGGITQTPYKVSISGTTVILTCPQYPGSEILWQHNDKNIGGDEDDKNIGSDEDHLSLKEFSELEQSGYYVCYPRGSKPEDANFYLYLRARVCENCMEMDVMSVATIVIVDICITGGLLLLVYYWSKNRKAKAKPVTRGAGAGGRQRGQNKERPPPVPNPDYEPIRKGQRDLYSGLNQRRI

- IFNγ production of lung TIL against Ba/F3.OKT3.FRα, CoStAR-Td versus non-Td [1]: 4 fold
- IFNγ production of lung TIL against autologous tumor digest, E:T 1:1, CoStAR-Td versus non-Td [1]: 6.4 fold
- IFNγ production of ovarian TIL against Ba/F3.OKT3.FRα, CoStAR-Td versus non-Td [1]: 4.2 fold
- IFNγ production of ovarian TIL against autologous tumor digest, E:T 1:1, CoStAR-Td versus non-Td [1]: 4.3 fold
- IFNγ production of renal TIL against Ba/F3.OKT3.FRα, CoStAR-Td versus non-Td [1]: 3.1 fold
- IFNγ production of renal TIL against autologous tumor digest, E:T 1:1, CoStAR-Td versus non-Td [1]: 2.4 fold
- IL-2 production of lung TIL against Ba/F3.OKT3.FRα, CoStAR-Td versus non-Td [1]: 18.3 fold
- IL-2 production of ovarian TIL against Ba/F3.OKT3.FRα, CoStAR-Td versus non-Td [1]: 19.9 fold
- IL-2 production of renal TIL against Ba/F3.OKT3.FRα, CoStAR-Td versus non-Td [1]: 15 fold
- fold expansion after a single stimulation with Ba/F3.OKT3.FRα, no exogenous IL-2, day 7 [1]: 6.7 fold
- fold expansion after repeated stimulation with Ba/F3.OKT3.FRα (days 0, 7, 14, 21), no exogenous IL-2, day 35 [1]: 829 fold
- fold expansion of T cells cocultured with Ba/F3.OKT3.FRα, E:T 8:1, 200 IU/mL IL-2, day 35 [1]: 198 fold
Molecule: anti-FRα CoStAR (MOV19 scFv - CD28 - CD40 costimulatory antigen receptor) on T cells or TILs
- xCELLigence cytotoxicity against H508.Luc.Puro.FRα, AUC of normalized cell index over 48 h, E:T 10:1, donor 37636 TCR.CoStAR-Td T cells [1]: 91.2 AUC

Molecule: membrane-anchored OKT3 on target cells (scFv)
- cytotoxicity against Ba/F3.OKT3 at E:T 1:5 after 5 days, CoStAR transduced T cells [2]: 82%
- cytotoxicity against Ba/F3.OKT3 at E:T 1:5 after 5 days, non-transduced T cells [2]: 74%

- Kd [3]: ~0.46 nM
B1: MOV19 monoclonal antibody (antibody, V domains shown)
VH: QVQLQQSGAELVKPGASVKISCKASGYSFTGYFMNWVKQSHGKSLEWIGRIHPYDGDTFYNQNFKDKATLTVDKSSNTAHMELLSLTSEDFAVYYCTRYDGSRAMDYWGQGTTVTVSS
VL: DIELTQSPASLAVSLGQRAIISCKASQSVSFAGTSLMHWYHQKPGQQPKLLIYRASNLEAGVPTRFSGSGSKTDFTLNIHPVEEEDAATYYCQQSREYPYTFGGGTKLEIK
notes: also called MOV19 antibody; MOV19 anti-FRα antibody
